Reference: the domain aggregation screens of Martell et al. (2025)

Assay: soluble fraction after stress (log2 fold change); higher = more stays soluble; pooled small domains, quantitative proteomics
Settings: stress: pH 4
Summary of the method: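 Aggregation propensity is estimated from the fold change in each domain's soluble amount after acid stress. Pooled small-domain libraries were stressed at pH 4, and higher log2 values mean more stayed soluble.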

Row | Sequence | soluble fraction (log2)
1 | HMGDTIFINNNFYVKHIVEFGETIDIISKIYDVSVNKILETNETSTKLYSGQSLFIPININV | -1.99
2 | HMTKGFSIQDISLSKSTMTFLQQNKITDLASLLSMSKSQIEGMKGFKPKMIQEIEKNLDKVGLVLAQD | -0.228
3 | HMLSVKEQTYQIIKEKILNQEYPAGARININELAEELGISNSPIREALSLLEQQGLVISNRSSGATVT | -0.772
4 | HMQISSSEVLEKVVDEILSANPKSIEDYKNGKLQAAGFLMGQVMKATKGQANPAVAKELIEAKLKD | 0.124
5 | HMGSGKGAAHTILGISADASDDEIKAAWRKLVQENHPDKLVSQGLPDEFVQAATDRLRLINTAYQSMLNRP | -0.328
6 | HMDARSTHIAAIHVLKSKLQLQDSDYRALLLTLTGQTSSKDLSEHQRRAVRNHMQQLAERMGVVQ | 0.0263
7 | HMEEAQWEFKWENTDSAEIHGPHSSSEMLKWQENSFFAKGVYVRKVGGDTTDFTDGKRIDFDLY | -1.69
8 | HMGVKTDKYYYQMATETRVNKHYGLSNQYIATLISEYPRSPLIPNASILSKKNNADLALIDQSINQR | 0.155
9 | HMEHVVFEVTESGELENNTAVKHVLNSFNNKSLNLAIDDFGTGYSNLRYIRDMMFGIIKIDRLFIKDINES | 0.158
10 | HMPAWKINQELQATVIATKANQTRLRIEGQTFETQTAIALKPGQSLLIKVVSLEPQISFALI | 0.199
11 | HMNPETLTNSSVIKMSKANLSDELITDMILNSPVKFDLSAGAIKTLESEGVTPAVLESMKNAASK | 0.0677
12 | HMGEPVASSREVAKRFGKEHKHVLAAIRQILVAENSATKFFHETAFEYRGQRFPEYLMNRDGFALLAMGF | -1.35
13 | HMKRRSLQVGDIVQVRSLNVKGEVVSIGKNEVVVAVGRLQMRAGFDDLDFKERPKEEREVESV | 0.0749
14 | HMLPVFNYQVYRTHGLIYVYAKDNDSFDQIARSMGFKAKQLMKFNEVPEDFPLQAGDIVYLEKKKK | -0.368
15 | HMSQLVTGVLRNLNDISEKIAAGKAVPEMLGRLENMQQMIANLKGNEGLIKSISILTRSAQDALR | -0.0398
16 | HMEPKIKQIVPNVVNYPVEDAKNVLVNSGLIVQIRGQGNIVYDQVPKGGAEVTRGTTVILDLNPPPGA | -0.768
17 | HMNDSGIIGVVINDHEKYEGHVLEDGFISSSLSALSREIDVAGYFMMVKTVVYEGFFQELKGIGNV | 0.079
18 | HMDRFVLQLSKRYYDSSIEGVRKALAAFPVKTELLDQDRGGRPFYHENGKENEPVFRIMFHPEEGM | -0.116
19 | HMKEMTAKQIDMFSDKLSKLESFQSHYIADAGVSVTEYKQAIAAKLQDQFYVEAWGKYLADVGFT | -1.13
20 | HMVEGMQFDRGYQSPYFVTNAEKMVAELDNPYILLVEKKISSMKELLPVLEPVAQQGKSLLIISEEVEG | -0.602
21 | HMAVSSHAVKQRIRSLIQAEDPAAPLSDEALRLALSALGVDVSRRVIAKYRAELNIPSSSQRKK | 0.213
22 | HMVSRVTTPGVVGKTWQETKQILKQADLTVGSLTRDGKDVTPADGDLVTAQNPSAGQAIVRGSSVDLTFDK | 0.0198
23 | HMQTTPAGHELLIRYFANGNIRERGMMKDGKRNGIWIFYDESGMEIRKTKYKMGKIISDYDLN | 0.0593
24 | HMRGSRIFSGDVSPLTLPANSPFFSGYTEFKPGDVYVERSATNIAMWEWKSQPGGYTWVKTADIA | 0.22
25 | HMAADLIGLEARVTLPLTEDQRGFIETSVRGSLVRRAALSASGRLDRGQRVVILRSEGTTLIVDAL | -0.372
26 | HMNQPRQRKVIFELIDERNALERVLMHFAHLEKQVEKIDERKYQVTLYYDKEDETEILIRVLSFG | -1.16

Row | Sequence | soluble fraction (log2)
27 | HMSLPNNLIEQLQDPEPKARRRAVRRLAATRDPSAIPLLRNVYLQDGDDRVRDAAEAALVQFRAMQHN | 0.104
28 | HMYLHSEFSPVTGQELHMKYDDSSTEEDPVMLVEGKDIQGNDFVKKIHLNDVDPENATPAEMTALRVHL | -0.507
29 | HMHEAILNQIRNEELMLYIGELSDAQQDVILLKYFHQMTFKEIAESFSIPISTVKTRHTAALKKLSTLWK | 0.0907
30 | HMTKQEYLNQLKNELVKQGVADAEDVVTEYEQHFAFKLADGFGEEEIAKKLGDPAAIASQFVG | -1.16
31 | HMGAEIRDKVRAALAGLNPRAAEIFVMRYFDGYGNREIARLLNTSWSTIAVTLHRTRAKLQKELK | 0.0552
32 | HMEKKGTVVIATVKGDIHDIGKNIVKVLLENYGFDVIDLGKDVPPEAVVEAVQQSGARLVGLSALM | -0.577
33 | HMQDNPELVARIEKAAARGTSSMSDWERSFMGSLLDSAKKWGRLTAKQHEVFQRIEKKTDPAHQAAVS | 0.0292
34 | HMKRNLESVLDHIEGIGPKRRKALYKHFGNLDAMRVAELEELESVEGMNKKAALAVYEFFRRNS | 0.411
35 | HMWNKGETKIPTQAQNELIKRRQAGATWTSLSEWLKATYGIDIHRTNIQRWYDKEVYLDQEN | -0.556
36 | HMPEKNQITHLIRLIDDRDEFVRKRVREQLIKLGEDAIPFLEMAAKTENLEIQRIASEIIQAIIPRQ | -0.282
37 | HMHSFFGDNIKKLRTAKKMSQEQLADIFGITKAGISYWETGRSEPNFATVQKLADFFGVTTSDLLGEA | 0.187
38 | HMTAQLAAQERTHALDMFMGGYKFSSKPAENGVRAEFEKKNFTLEDGKFLGGDEFMKSLMENDDYKGAFV | -0.509
39 | HMGQPGNWTSYVFKNSDTEPAKPTSSGPIPSGWNDAPTGVGIWWMSKATIDASTGKAGSWSTPIRVTGED | 0.0155
40 | HMDDEAVQIMTLHISKGLEFDVVFALGLVSRTPESKEIEELEAEKQRQLYVAMTRAEKWLIVAA | 0.22
41 | HMKASEMKKGQTIKIDGVLYVIVDFQHVKLSKGGAVYQTKLRNLAAGGIRDIRIRAEEVLEDA | -0.515
42 | HMAQVDAVQQVLQAFPALRSGQSQHLSQVVAALRQRGILTVGTKTTAWFAQWASVFQLLPLQVPNRIRYQS | 0.2
43 | HMEVSKETFPAYVAVDSLPVYKSASTSSSKVTTIDFGREVTVVETRGGWAKIQYGSYKGFAEIEGMSKN | -0.0269
44 | HMTADIRFLNSRKFYIYKVEKGETLFSISQKFNIPQEEIIQFNKDINQQGLKAKTKLWVPAYSWL | -0.43
45 | HMGSGLAAAEKIRKAHPEIKIVVATSLIDTQVLARAKAVGADSLWYKDGDEGTLMQVVRRTMAGDHIFP | -0.366
46 | HMNNFNVVVGKAIKNSFNTRENYITINAGKVLGIKTDMGVINDKGIVGIVEKTSKDFATIQSVLNIKS | 0.22
47 | HMKYKKYKLLKDLPTFKAGQLAYISKTGNLIAGTPENQKTTETGLIIMIYHETTLKKFPNILTEWFEEIE | -1.17
48 | HMDDPITVAYRETEDAIAQVQREGFPVEMPPANSYIRRIQHELAGRFNLDSESYGDEPERRVRIRPQQ | -0.92
49 | HMISQLRGKVLGTDRDALVIDVGGVGFRVSATAGARALAGQSGNEARLFTEMVVREDSIDLFGF | -0.245
50 | HMGTSFEDIDRAVKSVRKPETDEAEKLHAGKTFKDIAETELFQKLTESFAGISDRVNEVIDLYTARAAE | 0.143
51 | HMSSGTAYATDAVNVRSGPGTSYTVLGYLSRGEKVTITGTVSNGWTQIQLPGNRLGYVSSAYLSASYPS | -0.115
52 | HMLTGNTAKLFAHLVEVMNPKEFVKINRQTVIVEAGIPRGSVGAAIAKLLETGHLIANASGAYKLT | 0.0211

Row | Sequence | soluble fraction (log2)
53 | HMEGGLIMDRIEKGLQSGVMPDLRGLNLKDALYLLESYVQVQVIGSGGVIKQSIKTGDKFIMGSVIKLEL | 0.041
54 | HMSDRLRPGDMVVVVGKKKRYPVFSAFDIDFVEAGDVGKVLTVKREEVVVGFPKKGEGTFTPSELNIAH | 0.00331
55 | HMPGVTTQLHRLNGTEETYIIKRGDGVLEIDGEKSELQLGDAIIIPAGASQKISNIGDEDLE | -0.229
56 | HMGYDLLFQQALGFHEQGRLNEAENIYRQILETAPNNPDILNLLGLIAQQKGLHAQAVDYFYQAIRL | -1.9
57 | HMNLLQAHLLRLESAALLAEVREVDRQLSRWLHPLTPQSDVAIIDERNWEAAVARLTELGVHIEEGRW | -1.67
58 | HMAISEEEATNLALERVPGASAQDLRIQLEFDDGVQKYEGDIIYDGKEYDFEIDANTGTFLEWSE | 0.22
59 | HMDYAQAQRQAESAIALRPDVERLRLLLIYALQKQGKLREAEQAAADAIKSGLDTPALRQARANLRP | -0.205
60 | HMSNLLKNILDVLEKEGPLKARKIALLLDSTRTTITHTTINSELYKALDLEGLTKNEQNIWSYVT | -0.389
61 | HMEKKDTYTVKNGDSLWGIARTELGDGGRFREIYTLNADTIEAEAKKRGRSSSSEGHWIYPGSVLRLP | -0.325
62 | HMITDNEFLRIVSFLKQRYGIDMSQKKVIMNGRLENYLKSGGWSSFDEYMNDVEKDTSGDLEKTLVNFLTT | -0.853
63 | HMQKVPDAFKAEQVQTLITRLGVSRAELARTLDVSLSTVNKWASGAVEPKGSALVLLKVLWMHGFKAL | 0.03
64 | HMFPELSEEAKVIVDALSKENDQQLNVLIANTGMAVGTMQAKLFELEMQGVVKPLAGSVYHLM | 0.22
65 | HMTKSSAYLSAEKLINKKQYSDAIVKLNDALVTDSKNADIYNYLGFSHRKLGKMEDAAFFYNKALE | -0.165
66 | HMRPTAWEQVSRHIDQHGSIGNTEVRKAMETENVLAASKQIKKWLEQGLLIILNPTAGTRARRYSKPNM | -0.0247
67 | HMEKFTGELSQEEKNVLDALSHEEMHVDIIIKLTKLETSAVSSTLSLLEIKGLIKNIGGQNYIK | -0.139
68 | HMASDEVPGAGFKWREDVLLRVMEANGIDKSNRDDFVRHAVNFDDDDNNYLKKAEIEAAAAAWVESQSPA | -0.239
69 | HMWNPVLVVRGDFPKDLATTLLKMIFAQKEALNPHILFQNLLRTDNITFRESYPYHSASKTMFRF | -0.421
70 | HMKVQEMTANSFLTQWEAGNVKTLDILPEGIIKGELNDGTKFQLYYSSAAGLIDDVKKNPEKFANTTVSEK | -0.238
71 | HMLINIKTNSAVNVRSGPGMGFEVVNTYPSGYILQAKEMQKDGGDNVWYKVKDGWLSANYTIDI | 0.394
72 | HMKQDFVYNGFVEAKGDDLMVQINYKGETYYVTEGESFGGFTVKSANKDKVVLSGQGGAETVLEFR | -0.536
73 | HMGPNSVPDLRGKSLRQAMKMVNDLELKAIFEGEGIVVGQVPAPGKPVPETKILKITLSLEPY | 0.0736
74 | HMENEIFVPKVFMDWYNKVDKSIKVFKAFNLIEKETDPRLKEWVEDNQDEFAKIWLGQLLPVV | -0.35
75 | HMDEIDYSKYSITTSNRIINIDGVQSKVELFDVSGRSIQSTMVTGKFSSRPLNAGFYIIHVDGYSVKVSV | -1.19
76 | HMNMENIADKIGKIYESLPEDLKLMIKYRDIDDLTYDEIAVKADLPVGTVRSRLHRAREQLLKELEKN | -0.0554
